# Experimental data as given in publication PMC2686266.
# B1: His-tagged nuclear shuttle protein (NSP) of Cabbage leaf curl virus (CaLCuV), Q96706 1-256 (natural protein)
# chain: MYPTKFRRGVSYSQRRFVSRNQSSKRGTFVRRTDGKRRKGPSSKAHDEPKMKLQRIHENQYGPEFVMTHNSALSTFINFPVLGKIEPNRSRSYIKLNRLSFKGTVKIERVHADVNMDGVISKIEGVFSLVIVVDRKPHLSSTGGLHTFDEIFGARIHSHGNLAITPGLKDRYYVLHVLKRVLSVEKDTLMVDLEGSTTISNRRYNCWASFNDLEHDLCNGVYANISKNAILVYYCWMSDAMSKASTFVSYDLDYLG
# Molecular target: the mutant kinases (GST-fused NIK1 kinase domains with single and double amino acid replacements in the A-loop, except T474D)
binder,measurement,value
B1,further reduction of the residual autophosphorylation activity of the mutant kinases in vitro in the presence of GST-NSP,50 to 70%
